T1: mouse CCR8 (mouse, UniProt P56484 1-353)
T1 construct: format of the KD assay of the anti-murine antibody is not described; also called mCCR8; murine CCR8
T1 sequence: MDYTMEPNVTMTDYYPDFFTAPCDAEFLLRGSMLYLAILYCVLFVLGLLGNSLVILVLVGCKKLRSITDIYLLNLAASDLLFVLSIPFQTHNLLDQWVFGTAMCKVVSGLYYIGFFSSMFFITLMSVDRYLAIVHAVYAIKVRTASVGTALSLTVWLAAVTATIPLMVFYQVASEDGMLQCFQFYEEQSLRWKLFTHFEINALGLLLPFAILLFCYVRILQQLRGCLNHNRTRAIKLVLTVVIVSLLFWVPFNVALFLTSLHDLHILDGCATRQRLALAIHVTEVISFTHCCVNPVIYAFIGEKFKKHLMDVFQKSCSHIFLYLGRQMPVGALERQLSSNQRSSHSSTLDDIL

B1: hu.Ab3.H1L1 (antibody, human IgG1, kappa, V domains shown)
VH: EQQLVESGGGLVQPGGSLRLSCAVSGFSLSSYAMSWVRQAPGKGLEWIGVISASGRIIYATWAKGRFTISKDSAKTSVYLQMNSLRDEDTAVYFCARGVPSYSLVMSDWGPGTTVTVSS
VL: EPVMTQSPATLSVSPGERATLSCQASQSISNALAWYQQKPGQPPRLLIYEVSKVASGVPARFSGSGSGTEFTLTISSLQSEDFAVYYCQSAYYGNSYVWGAFGQGTKVEIKR
B2: hu.Ab4.H1L1 (antibody, human IgG1, V domains shown)
VH: EQQLLESGGGLVQPGGSLRLSCAVSGFSLSNYAMIWVRQAPGKGLEWVGTISLGGYTYYANWAKGRFTISKDSSKTTVYLQMNSLRAEDTAVYFCARARWSTDSAIYTYAFDPWGPGTLVTVSS
VL: DYQMTQSPSSLSASVGDRVTITCQASQSISSYLSWYQQKPGKRPKLLIYKASTLASGVPSRFSGSGSGTDFTLTISSLQPEDFATYYCQQGYTSSNIDNIFGGGTKVEIK
B3: Afuc.hu.Ab5.H13L1 (antibody, human IgG1, kappa)
heavy: not shown
light: DIQVTQSPSSLSASVGDRVTITCQASENIANALAWYQQKPGKPPKFLIYGASNLASGVPSRFSGSGSGTDFTFTISSLQPEDIATYYCQQAYYGNSFVEGTFGGGTKVEIKRTVAAPSVFIFPPSDEQLKSGTASVVCLLNNFYPREAKVQWKVDNALQSGNSQESVTEQDSKDSTYSLSSTLTLSKADYEKHKVYACEVTHQGLSSPVTKSFNRGEC
modifications: afucosylated Fc N-glycan (position Asn 299 as printed); about 80% to about 95% afucosylation
notes: also called afucosylated hu.Ab5.H13L1; Afuc.Ab5.H13L1
B4: hu.Ab5.H13L1 (antibody, human IgG1, kappa)
heavy: not shown
light: DIQVTQSPSSLSASVGDRVTITCQASENIANALAWYQQKPGKPPKFLIYGASNLASGVPSRFSGSGSGTDFTFTISSLQPEDIATYYCQQAYYGNSFVEGTFGGGTKVEIKRTVAAPSVFIFPPSDEQLKSGTASVVCLLNNFYPREAKVQWKVDNALQSGNSQESVTEQDSKDSTYSLSSTLTLSKADYEKHKVYACEVTHQGLSSPVTKSFNRGEC
notes: Fucosylated human IgG1 kappa; also called Ab5 variant; huCCR8 antibody hu.Ab5.H13L1 (hIgG1)
B5: hu.Ab5.H1L1 (antibody, human IgG1, V domains shown)
VH: EQQLLESGGGLVQPGGSLRLSCAVSGIDLSTYAMGWVRQAPGKGLEWIGLIHRSGRTYYATWAKGRFTISKDSSKTTVYLQMNSLRAEDTAVYFCTRSYPDYSATASIWGPGTTVTVSS
VL: DIQVTQSPSSLSASVGDRVTITCQASENIANALAWYQQKPGKPPKFLIYGASNLASGVPSRFSGSGSGTDFTFTISSLQPEDIATYYCQQAYYGNSFVEGTFGGGTKVEIK
B6: mouse surrogate anti-CCR8 mAb (antibody, mouse IgG2a, kappa, V domains shown)
VH: QSVKESGGRLVTPGGSLTLTCTVSRIDLNEYSMAWVRQAPGKGLEWIGYIDAGSGSAYYASWAKGRFTISKTSSTTVDLEMTTLTTEDTATYFCARDVYPGYTTGTNLGLWGPGTLVTVSS
VL: AAVLTQTPASVSAAVGGTVSISCRSSKSVYSNYLSWYQQKPGQPPKLLIYRASTLTPGVPSRFKGSGSGTQFSLTIRDVQSADAGSYYCAGGYSSGSDNTFGGGTKLEIKR
notes: Chimeric rabbit-derived murine IgG2a; also called Anti-mCCR8; anti-murine CCR8 antibody
B7: hu.Ab4.H12L3 (antibody, human IgG1, kappa)
heavy: not shown
light: DYQMTQSPSSLSASVGDRVTITCQASQSISSYLSWYQQKPGKAPKLLIYKASTLASGVPSRFSGSGSGTDFTLTISSLQPEDFATYYCQQGYTSSNIDNIFGGGTKVEIKRTVAAPSVFIFPPSDEQLKSGTASVVCLLNNFYPREAKVQWKVDNALQSGNSQESVTEQDSKDSTYSLSSTLTLSKADYEKHKVYACEVTHQGLSSPVTKSFNRGEC
B8: Afuc.hu.Ab4.H12L3 (antibody, human IgG1, kappa)
heavy: not shown
light: DYQMTQSPSSLSASVGDRVTITCQASQSISSYLSWYQQKPGKAPKLLIYKASTLASGVPSRFSGSGSGTDFTLTISSLQPEDFATYYCQQGYTSSNIDNIFGGGTKVEIKRTVAAPSVFIFPPSDEQLKSGTASVVCLLNNFYPREAKVQWKVDNALQSGNSQESVTEQDSKDSTYSLSSTLTLSKADYEKHKVYACEVTHQGLSSPVTKSFNRGEC
modifications: afucosylated Fc N-glycan (position Asn 299 as printed); about 80% to about 95% afucosylation
notes: also called afucosylated hu.Ab4.H12L3; Afuc.Ab4.H12L3

Key:
[1] = target: T2, human CCR8 (human, UniProt P51685 1-355); test: cell-based or functional assay
[2] = target: T2, human CCR8; test: cell-based or functional assay; remark: listed apart in the source
[3] = target: T2, human CCR8; test: cell-based or functional assay; remark: listed apart in the source
[4] = target: T3, human Fc gamma receptor IIIa V158, GST fusion (human, UniProt P08637 17-208); test: ELISA, captured GST-FcgR3a
T3 construct: extracellular domain; also called GST-FcgR3a.V158; FcgR3a.V158 protein; not shown: Gly-6xHis-glutathione S-transferase (GST) tag at the C-terminus
T3 sequence (P08637 17-208 F176V): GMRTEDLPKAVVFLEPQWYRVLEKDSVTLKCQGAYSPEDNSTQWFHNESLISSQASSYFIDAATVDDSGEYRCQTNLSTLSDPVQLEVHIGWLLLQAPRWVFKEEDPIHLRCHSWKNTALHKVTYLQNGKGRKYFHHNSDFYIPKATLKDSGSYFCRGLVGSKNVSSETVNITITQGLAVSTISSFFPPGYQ
Experimental: (§1) Briefly, an anti-GST antibody was coated on Nunc MAXISORP™ plates. GST-FcgR3a.V158 and GST-FcgR3a.F158 were captured at 500 ng/mL. Plates were then washed and then serially diluted anti-CCR8 antibodies starting at 100 μg/mL were incubated on the plate for 1 hour at room temperature. Plates were washed and bound antibody was detected by an HRP-conjugated anti-human IgG secondary antibody. Absorbance at 450 nm was measured by a plate reader. The data were fitted using a 4-parameter logistic curve in SOFTM^AX® Pro.

[5] = target: T4, human Fc gamma receptor IIIa F158, GST fusion (human, UniProt P08637 17-208); test: ELISA, captured GST-FcgR3a
T4 construct: extracellular domain; also called GST-FcgR3a.F158; FcgR3a.F158 protein; not shown: Gly-6xHis-glutathione S-transferase (GST) tag at the C-terminus
T4 sequence (P08637 17-208): as the sequence (P08637 17-208 F176V) above, with V160F counted along it
Experimental: as §1

[6] = target: T5, cynomolgus monkey CCR8 (cynomolgus monkey, UniProt O97665 1-356 (rhesus entry)); test: competition of unlabelled antibody with a fixed concentration of the 125I-labelled same antibody on CHO cells stably expressing cyno CCR8 (CHO-cynoCCR8), filter plates, gamma counting
T5 construct: On CHO cells stably expressing cyno CCR8 or on cyno blood Treg cells; also called cyno CCR8; cynoCCR8
T5 sequence (O97665 other isoform, or with tags, fused parts or gaps): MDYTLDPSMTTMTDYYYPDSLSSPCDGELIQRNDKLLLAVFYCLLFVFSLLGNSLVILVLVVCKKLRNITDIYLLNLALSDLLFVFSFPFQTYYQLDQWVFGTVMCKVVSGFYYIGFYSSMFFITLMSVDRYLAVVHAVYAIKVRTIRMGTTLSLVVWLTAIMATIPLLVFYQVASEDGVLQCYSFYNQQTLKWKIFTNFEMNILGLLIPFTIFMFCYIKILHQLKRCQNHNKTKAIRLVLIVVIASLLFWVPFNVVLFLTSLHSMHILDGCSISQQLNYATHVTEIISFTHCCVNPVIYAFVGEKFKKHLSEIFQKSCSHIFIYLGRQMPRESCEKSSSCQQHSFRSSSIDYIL

[7] = target: T1, mouse CCR8; test: assay not described ('in vitro assays')
[8] = target: T2, human CCR8; test: cell-based or functional assay; remark: listed apart in the source

Row | Binder | ADCC EC50 (calcein release; NK-92_F158 effector cells, CHO/hCCR8.Gna15 target cells) [1] [nM] | ADCP EC50, macrophages of donor HR/FF (FIG. 14A) [3] [nM] | ADCP EC50, macrophages of donor RR/FF (FIG. 14B) [3] [nM] | ADCP EC50, macrophages of donor RR/VF (FIG. 14D) [3] [nM] | further results
1 | B1 | 0.02 | – | – | – | –
2 | B2 | 0.08 | – | – | – | IC50 of CCL1 blocking (Ca2+ influx, CHO/hCCR8.Gna15 cells, 20 nM CCL1) [2]: 57.9 nM
3 | B3 | – | 0.017 | 0.2 | 0.5 | ADCP EC50, macrophages of donor HR/FF (FIG. 14E) [3]: 0.022 nM; ADCP EC50, macrophages of donor HR/VF (FIG. 14C) [3]: 0.01 nM; fold increase in binding potency over the fucosylated counterpart [4]: ~10 fold; fold increase in binding potency over the fucosylated counterpart [5]: ~10 fold
4 | B4 | – | – | – | – | IC50 (read off the curve) [6]: ~0.04 nM
5 | B5 | 0.02 | – | – | – | –
6 | B6 | – | – | – | – | Kd [7]: 0.218 nM
7 | B7 | – | 0.35 | 0.81 | 0.41 | IC50 of ligand blocking (Ca2+ influx, 20 nM CCL1) [8]: 57.9 nM
8 | B8 | – | 0.025 | 0.12 | 0.079 | ADCP EC50, macrophages of donor HR/FF (FIG. 14E) [3]: 0.035 nM; ADCP EC50, macrophages of donor HR/VF (FIG. 14C) [3]: 0.017 nM; fold increase in binding potency over the fucosylated counterpart [4]: ~10 fold; fold increase in binding potency over the fucosylated counterpart [5]: ~10 fold

— patent US20250297019A1 (Genentech, published 2025)
